Results reported in publication doi:10.1101/257543 (bioRxiv, 2018).

B1: BIR2 LRR ectodomain (BIR2^1-222), wild type (domain or fragment, A. thaliana, UniProt Q9LSI9 29-222, looked up)
chain: ADEDDIRCLRGLKASLTDPQNALKSWNFDNTTLGFLCNFVGVSCWNNQENRVINLELRDMGLSGKIPDSLQYCASLQKLDLSSNRLSGNIPTELCNWLPFLVSLDLSNNELNGEIPPDLAKCSFVNSLVLSDNRLSGQIPVQFSALGRLGRFSVANNDLSGRIPVFFSSPSYSSDDFSGNKGLCGRPLSSSCGG
modifications: N-glycan at Asn58 (in the crystal structure)
B2: BIR2^E84R LRR ectodomain (domain or fragment, A. thaliana, UniProt Q9LSI9 29-222, looked up)
chain: ADEDDIRCLRGLKASLTDPQNALKSWNFDNTTLGFLCNFVGVSCWNNQENRVINLRLRDMGLSGKIPDSLQYCASLQKLDLSSNRLSGNIPTELCNWLPFLVSLDLSNNELNGEIPPDLAKCSFVNSLVLSDNRLSGQIPVQFSALGRLGRFSVANNDLSGRIPVFFSSPSYSSDDFSGNKGLCGRPLSSSCGG
B3: BIR2^W73A LRR ectodomain (domain or fragment, A. thaliana, UniProt Q9LSI9 29-222, looked up)
chain: ADEDDIRCLRGLKASLTDPQNALKSWNFDNTTLGFLCNFVGVSCANNQENRVINLELRDMGLSGKIPDSLQYCASLQKLDLSSNRLSGNIPTELCNWLPFLVSLDLSNNELNGEIPPDLAKCSFVNSLVLSDNRLSGQIPVQFSALGRLGRFSVANNDLSGRIPVFFSSPSYSSDDFSGNKGLCGRPLSSSCGG
B4: BIR2^V157D LRR ectodomain (domain or fragment, A. thaliana, UniProt Q9LSI9 29-222, looked up)
chain: ADEDDIRCLRGLKASLTDPQNALKSWNFDNTTLGFLCNFVGVSCWNNQENRVINLELRDMGLSGKIPDSLQYCASLQKLDLSSNRLSGNIPTELCNWLPFLVSLDLSNNELNGEIPPDLAKCSFVNSLDLSDNRLSGQIPVQFSALGRLGRFSVANNDLSGRIPVFFSSPSYSSDDFSGNKGLCGRPLSSSCGG
B5: BIR3 LRR ectodomain (BIR3^1-213) (domain or fragment, A. thaliana, UniProt O04567 25-213, looked up)
chain: EDDVLCLQGLKNSLIDPSSRLSSWSFPNSSASSICKLTGVSCWNEKENRIISLQLQSMQLAGEIPESLKLCRSLQSLDLSGNDLSGSIPSQICSWLPYLVTLDLSGNKLGGSIPTQIVECKFLNALILSDNKLSGSIPSQLSRLDRLRRLSLAGNDLSGTIPSELARFGGDDFSGNNGLCGKPLSRCGA
modifications: N-glycosylated (fully glycosylated in the crystal; sites not given)

Legend:
Test in all cases: ITC
[1] = biological target: T1, SERK3^F60A LRR ectodomain (A. thaliana, UniProt Q94F62 26-220, F60A)
T1 sequence (looked up): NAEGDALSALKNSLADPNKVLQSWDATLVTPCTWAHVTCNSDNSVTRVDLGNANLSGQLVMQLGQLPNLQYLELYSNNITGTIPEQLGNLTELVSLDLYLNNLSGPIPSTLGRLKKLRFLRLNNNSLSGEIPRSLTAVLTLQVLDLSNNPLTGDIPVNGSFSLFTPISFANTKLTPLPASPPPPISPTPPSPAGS

[2] = biological target: T2, SERK3^D122N LRR ectodomain (elg) (A. thaliana, UniProt Q94F62 26-220, D122N)
T2 sequence (looked up): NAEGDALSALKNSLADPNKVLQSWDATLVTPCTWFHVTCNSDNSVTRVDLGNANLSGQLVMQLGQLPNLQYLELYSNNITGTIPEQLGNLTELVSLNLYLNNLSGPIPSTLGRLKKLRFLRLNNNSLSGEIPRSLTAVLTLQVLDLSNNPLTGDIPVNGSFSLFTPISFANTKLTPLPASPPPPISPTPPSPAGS

[3] = biological target: T3, SERK3 LRR ectodomain (SERK3^1-220), wild type (A. thaliana, UniProt Q94F62 26-220)
T3 sequence (looked up): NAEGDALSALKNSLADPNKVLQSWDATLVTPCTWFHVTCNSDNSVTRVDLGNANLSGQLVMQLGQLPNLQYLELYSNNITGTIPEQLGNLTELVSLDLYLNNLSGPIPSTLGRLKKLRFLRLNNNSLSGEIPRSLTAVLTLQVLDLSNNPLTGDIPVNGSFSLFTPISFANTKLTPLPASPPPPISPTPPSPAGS

[4] = biological target: different SERK ectodomains

| Binder | binding result [1] | fold reduction of binding against wild-type SERK3 [2] | binding result [3] | Kd [4] | Kd [3] | stoichiometry N [3] |
| --- | --- | --- | --- | --- | --- | --- |
| B1 | binds | ~8 fold | binds | 1000 to 3000 nM | – | – |
| B2 | – | – | binds | – | – | – |
| B3 | – | – | binds | – | – | – |
| B4 | – | – | binds | – | – | – |
| B5 | – | ~4 fold | – | 1000 to 3000 nM | ~1000 nM | 1 |
